Source: US20130064834A1 (published 2013)

Tests used:
[1] = biological target: T1, hPCSK9(D238R) (human, UniProt Q8NBP7 31-692); experiment: SPR, mAb captured, 25C
T1 construct: mmh-tagged variant hPCSK9
Text: (§1) Each selected antibody was captured on a F(ab′)2 anti-hIgG surface created through direct chemical coupling to a BIACORE™ chip to form a captured antibody surface.

[2] = biological target: T2, rat (Rattus norvegicus) PCSK9, myc-myc-his tagged (rat (Rattus norvegicus), UniProt P59996 31-691); experiment: SPR, mAb amine-coupled, 25C, pH 5.5
T2 construct: also called rPCSK9-mmh; rPCSK9
Text: (§2) Briefly, mAbs were immobilized onto BIACORE™ CM5 sensor chips via amine coupling.

[3] = biological target: T3, his-tagged Syrian golden hamster (Mesocricetus auratus) PCSK9 (Syrian golden hamster (Mesocricetus …)); experiment: SPR, mAb amine-coupled, 25C, pH 5.5
T3 construct: also called maPCSK9-h; maPCSK9
T3 chain: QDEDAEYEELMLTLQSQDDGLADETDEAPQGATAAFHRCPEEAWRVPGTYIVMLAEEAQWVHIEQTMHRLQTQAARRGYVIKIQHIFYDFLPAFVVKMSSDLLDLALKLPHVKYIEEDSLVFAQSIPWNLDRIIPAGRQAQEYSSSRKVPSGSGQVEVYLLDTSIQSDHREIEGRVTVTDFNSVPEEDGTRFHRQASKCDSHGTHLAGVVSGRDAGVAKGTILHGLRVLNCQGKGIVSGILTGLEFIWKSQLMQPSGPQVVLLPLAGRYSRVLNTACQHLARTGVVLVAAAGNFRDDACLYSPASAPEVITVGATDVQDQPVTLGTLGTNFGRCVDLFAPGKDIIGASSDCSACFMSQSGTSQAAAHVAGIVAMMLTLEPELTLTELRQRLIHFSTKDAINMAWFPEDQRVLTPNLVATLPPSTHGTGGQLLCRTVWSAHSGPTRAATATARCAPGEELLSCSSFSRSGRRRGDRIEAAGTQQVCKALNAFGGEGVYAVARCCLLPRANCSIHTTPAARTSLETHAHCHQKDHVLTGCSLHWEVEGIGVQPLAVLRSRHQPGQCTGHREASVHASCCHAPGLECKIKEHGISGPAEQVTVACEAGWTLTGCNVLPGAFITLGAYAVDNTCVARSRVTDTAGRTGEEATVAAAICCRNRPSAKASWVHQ
Text: as §2

[4] = biological target: T4, mouse PCSK9, myc-myc-his tagged (mouse, UniProt Q80W65 35-694); experiment: SPR, mAb amine-coupled, 25C, pH 5.5
T4 construct: also called mPCSK9-mmh; mPCSK9
T4 sequence (Q80W65 35-694 limits assumed): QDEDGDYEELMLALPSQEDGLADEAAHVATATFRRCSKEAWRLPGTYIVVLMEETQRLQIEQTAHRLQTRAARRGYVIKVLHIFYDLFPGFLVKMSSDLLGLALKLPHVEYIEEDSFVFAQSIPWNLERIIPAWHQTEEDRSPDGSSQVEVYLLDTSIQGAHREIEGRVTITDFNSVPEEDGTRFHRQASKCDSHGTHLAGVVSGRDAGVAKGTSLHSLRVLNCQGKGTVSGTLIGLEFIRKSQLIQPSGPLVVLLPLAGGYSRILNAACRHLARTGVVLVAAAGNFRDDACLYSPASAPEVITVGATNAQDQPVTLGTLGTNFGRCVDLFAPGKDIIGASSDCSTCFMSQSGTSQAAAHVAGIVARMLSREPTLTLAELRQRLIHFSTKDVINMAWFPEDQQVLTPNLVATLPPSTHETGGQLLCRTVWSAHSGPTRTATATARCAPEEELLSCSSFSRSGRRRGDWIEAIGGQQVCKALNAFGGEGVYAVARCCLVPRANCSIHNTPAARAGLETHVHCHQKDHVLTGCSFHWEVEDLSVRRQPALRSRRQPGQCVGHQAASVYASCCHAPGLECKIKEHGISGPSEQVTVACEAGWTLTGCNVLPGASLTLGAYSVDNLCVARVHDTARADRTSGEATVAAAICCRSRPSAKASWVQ
Text: as §2

[5] = biological target: T5, hPCSK9(E366K) (human, UniProt Q8NBP7 31-692); experiment: SPR, mAb captured, 25C
T5 construct: mmh-tagged variant hPCSK9
Text: as §1

[6] = biological target: T6, Human PCSK9-myc-myc-his (human, UniProt Q8NBP7 31-692); experiment: SPR, mAb captured on anti-hFc, 25C
T6 construct: also called hPCSK9-mmh; hPCSK9

[7] = biological target: T7, hPCSK9(D374Y)-mmh (human, UniProt Q8NBP7 31-692); experiment: SPR, mAb captured on anti-hFc, 25C
T7 construct: also called hPCSK(D374Y)-mmh

[8] = biological target: T8, tagged rhesus monkey (Macaca mulata) PCSK9 (rhesus monkey (Macaca mulata), UniProt A8T666 31-692); experiment: SPR, mAb captured on anti-hFc, 25C
T8 construct: also called mmPCSK9-mmh; mmPCSK9
T8 sequence (A8T666 31-692 limits assumed): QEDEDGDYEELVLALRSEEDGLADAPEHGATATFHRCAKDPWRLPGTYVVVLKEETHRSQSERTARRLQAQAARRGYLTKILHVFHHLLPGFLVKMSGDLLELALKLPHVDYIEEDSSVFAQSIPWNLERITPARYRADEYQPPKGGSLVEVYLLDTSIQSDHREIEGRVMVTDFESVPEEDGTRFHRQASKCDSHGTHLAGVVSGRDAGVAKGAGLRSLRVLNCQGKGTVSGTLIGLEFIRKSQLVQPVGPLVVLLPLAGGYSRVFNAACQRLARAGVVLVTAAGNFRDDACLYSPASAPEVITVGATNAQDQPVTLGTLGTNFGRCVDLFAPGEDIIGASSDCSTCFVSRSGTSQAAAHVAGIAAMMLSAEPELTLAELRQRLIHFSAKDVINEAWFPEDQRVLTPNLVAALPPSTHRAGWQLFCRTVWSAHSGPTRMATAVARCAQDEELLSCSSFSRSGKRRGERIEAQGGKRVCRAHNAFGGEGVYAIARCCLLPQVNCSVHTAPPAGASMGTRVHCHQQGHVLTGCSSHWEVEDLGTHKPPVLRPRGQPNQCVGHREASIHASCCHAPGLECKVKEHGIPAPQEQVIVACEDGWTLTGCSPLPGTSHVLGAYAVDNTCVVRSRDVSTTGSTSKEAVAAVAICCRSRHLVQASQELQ

[9] = biological target: T9, cynomolgus monkey (Macaca fascicularis) PCSK9, myc-myc-his tagged (cynomolgus monkey (Macaca fascicularis), UniProt A8T662 31-692 (Macaca nemestrina entry), limits assumed); experiment: SPR, mAb captured on anti-hFc, 25C
T9 construct: also called mfPCSK9-mmh; mfPCSK9
T9 sequence (A8T662 31-692 limits assumed): as the sequence (A8T666 31-692 limits assumed) above, with P607A, K639E counted along it

T2 sequence (P59996 31-691 limits assumed): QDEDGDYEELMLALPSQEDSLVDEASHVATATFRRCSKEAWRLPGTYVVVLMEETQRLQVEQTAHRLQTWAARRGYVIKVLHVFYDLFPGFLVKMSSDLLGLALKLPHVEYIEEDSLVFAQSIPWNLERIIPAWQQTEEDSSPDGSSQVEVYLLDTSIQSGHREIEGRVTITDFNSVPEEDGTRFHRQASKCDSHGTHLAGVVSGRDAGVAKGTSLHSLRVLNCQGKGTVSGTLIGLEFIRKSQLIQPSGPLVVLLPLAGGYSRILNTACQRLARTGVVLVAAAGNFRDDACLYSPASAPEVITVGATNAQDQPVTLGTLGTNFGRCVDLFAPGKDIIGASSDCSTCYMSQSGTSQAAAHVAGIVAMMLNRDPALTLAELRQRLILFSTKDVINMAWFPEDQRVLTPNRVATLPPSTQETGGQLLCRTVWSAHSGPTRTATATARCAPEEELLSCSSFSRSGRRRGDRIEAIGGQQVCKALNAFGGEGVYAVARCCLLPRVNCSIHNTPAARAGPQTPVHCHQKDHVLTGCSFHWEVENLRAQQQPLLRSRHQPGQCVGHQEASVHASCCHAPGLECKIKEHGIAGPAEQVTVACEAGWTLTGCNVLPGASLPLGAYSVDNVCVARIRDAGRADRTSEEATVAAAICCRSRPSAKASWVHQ

B1: H1H316P (antibody, V domains shown)
VH: EVQLVESGGGLVQPGGSLRLSCAASGFTFNNYAMNWVRQAPGKGLDWVSTISGSGGTTNYADSVKGRFIISRDSSKHTLYLQMNSLRAEDTAVYYCAKDSNWGNFDLWGRGTLVTVSS
VL: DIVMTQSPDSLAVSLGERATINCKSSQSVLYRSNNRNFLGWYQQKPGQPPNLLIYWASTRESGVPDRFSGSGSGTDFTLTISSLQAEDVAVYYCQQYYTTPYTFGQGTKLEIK
notes: Fully human mAb made in CHO cells; also called mAb316P
**Q.** What does the source list for B1?
**A.** fold reduction of binding affinity against wildtype hPCSK9 [1]: > 400 fold; fold shortening of T1/2 against wildtype hPCSK9 [1]: ~30 fold; Kd [2]: 349 pM; T1/2 [2]: 5 min; Kd [3]: 87 pM; T1/2 [3]: 8 min; Kd [4]: 63 pM; T1/2 [4]: 11 min

B2: H1M300N (antibody, V domains shown)
VH: EMQLVESGGGLVQPGGSLRLSCAASGFTFSSHWMKWVRQAPGKGLEWVANINQDGSEKYYVDSVKGRFTISRDNAKNSLFLQMNSLRAEDTAVYYCARDIVLMVYDMDYYYYGMDVWGQGTTVTVSS
VL: not shown
notes: Fully human version made in CHO cells
**Q.** With B2 as the binder, how does the “fold reduction of binding against wildtype hPCSK9” value [5] read?
**A.** Its value is roughly 50 fold.

**Q.** And the Kd [6]?
**A.** The Kd was 740 pM.

**Q.** What about the T1/2 [6] of the same binder?
**A.** Its T1/2 is 110 min.

**Q.** What about the Kd [7] of the same binder?
**A.** The Kd was 900 pM.

**Q.** And the T1/2 [7]?
**A.** The T1/2 was 65 min.

**Q.** What about the Kd [8] of the same binder?
**A.** Its Kd is 610 pM.

**Q.** What about the T1/2 [8] of the same binder?
**A.** The T1/2 was 79 min.

**Q.** What about the Kd [9] of the same binder?
**A.** Its Kd is 1500 pM.

**Q.** What about the T1/2 [9] of the same binder?
**A.** The T1/2 was 45 min.
